Measurements reported in PMC9098222.

Target: PIK3R2/p85β (UniProt O00459)
Assay: anti-Myc IP, PIK3R2 immunoblot
Settings: reference: Myc-IRS4 wild type; sites Y779

## IRS4 (insulin receptor substrate 4) (from UniProt O14654) Myc-IRS4 Y779F
  binding against the reference: weaker
